Experimental findings from article PMC4057017 are described below.

This test has as its target BG505 EnvΔCT trimer (cleaved, membrane-derived) (HIV-1 isolate BG505 (clade A)). Briefly: single particle EM reconstruction.

PGT151 Fab registered a stoichiometry N (Fabs per trimer) of 2.
